Measurements taken from the supplement of paper PMC12455559.
± gives the standard deviation of the averaged measurements.

What was measured:
[1] = melting temperature (DSF); higher = more thermostable
How it was run: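 After expression in E. coli C41(DE3), the candidate enzymes were bound to nickel beads and released with SUMO protease. Their melting temperature was found by differential scanning fluorimetry with Sypro Orange on a Bio-Rad CFX96. Each sealed PCR plate well held 45 μL enzyme (0 to 0.3 mg/mL) plus 5 μL 5X dye, and fluorescence was read for 250 cycles from 25 °C at 0.3 °C per cycle (ramp 0.3 °C/s).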

[2] = PET hydrolysis, aromatic products released after 48 h (umol product/mg enzyme); higher = more PET depolymerization activity
How it was run: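 PET hydrolysis activity was taken as the aromatic product in the supernatant and expressed per mg enzyme. This product was measured by absorbance at 260 and 280 nm against buffer blanks. Each reaction held 5 μg (50 μL) of tagless, SUMO-cleaved candidate enzyme purified on nickel beads, plus 3.5 mg amorphous PET film or crystalline PET powder in 450 μL buffer: 50 mM NaCitrate (pH 4.5, 5.5), 50 mM NaPhosphate (pH 6.5, 7.5) or glycine (pH 8.5). Plates were sealed and left 48 h at 40 or 60 °C without shaking.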

[3] = purified protein yield per well (BCA); higher = higher soluble expression
How it was run: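 Candidate enzymes were made in 2 mL autoinduction cultures of E. coli C41(DE3) with 100 µg/mL kanamycin, at 37 °C for 2 h and then 18 °C for 40 h, and purified with Ni-charged magnetic beads and SUMO protease cleavage. The Pierce Rapid Gold BCA kit gave purified protein yield per well. Values lower than 25 ug (0.1 mg/mL) are below the detection threshold.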

[4] = substrate: cryPow, 40 °C, pH 4.5
[5] = substrate: cryPow, 40 °C, pH 5.5
[6] = substrate: cryPow, 40 °C, pH 6.5
[7] = substrate: cryPow, 40 °C, pH 7.5
[8] = substrate: cryPow, 60 °C, pH 4.5
[9] = substrate: cryPow, 60 °C, pH 5.5
[10] = substrate: cryPow, 60 °C, pH 6.5
[11] = substrate: cryPow, 60 °C, pH 7.5
[12] = substrate: aFilm, 40 °C, pH 4.5
[13] = substrate: aFilm, 40 °C, pH 5.5
[14] = substrate: aFilm, 40 °C, pH 6.5
[15] = substrate: aFilm, 40 °C, pH 7.5
[16] = substrate: aFilm, 60 °C, pH 4.5
[17] = substrate: aFilm, 60 °C, pH 5.5
[18] = substrate: aFilm, 60 °C, pH 6.5
[19] = substrate: aFilm, 60 °C, pH 7.5
[20] = substrate: cryPow, 40 °C, pH 8.5

| Sequence | melting temperature [1] | PET hydrolysis [2, 4] | PET hydrolysis [2, 5] | PET hydrolysis [2, 6] | PET hydrolysis [2, 7] | PET hydrolysis [2, 8] | PET hydrolysis [2, 9] | PET hydrolysis [2, 10] | PET hydrolysis [2, 11] | purified protein yield per well [3] | PET hydrolysis [2, 12] | PET hydrolysis [2, 13] | PET hydrolysis [2, 14] | PET hydrolysis [2, 15] | PET hydrolysis [2, 16] | PET hydrolysis [2, 17] | PET hydrolysis [2, 18] | PET hydrolysis [2, 19] | PET hydrolysis [2, 20] | PET hydrolysis ([2]; substrate: aFilm, 40 °C, pH 8.5) | PET hydrolysis ([2]; substrate: aFilm, 60 °C, pH 8.5) | PET hydrolysis ([2]; substrate: cryPow, 60 °C, pH 8.5) |
| --- | --- | --- | --- | --- | --- | --- | --- | --- | --- | --- | --- | --- | --- | --- | --- | --- | --- | --- | --- | --- | --- | --- |
| DEIGQAPTSSNITGNGSFSVATYNISSLVSGFGGGVAYYPTTSGRYPVIAVSPGFTARWSSISWIGPRLASWGFVVVGIETNSIYDQPGSRGSQLLAALNWAVNSAPSSVRDRVDGSRRGVAGHSMGGGGTLEALAADTTGLVKAGVPIAPWNTDTTWGGLNEAVQIVGGESDTIAPVSSHSIPFYSTLGGPKSYVELNGASHFFPQTSNSTLSRALVSWFKRYLNNDARFTPFTCGYSGLSISDFRSNNC [ESM144] | 50.2 C | < 3 | < 3 | < 3 | 6 | < 3 | < 3 | < 3 | < 3 | 89.1 µg |  |  |  |  |  |  |  |  |  |  |  |  |
| ASPYERGPNPTAASVSATTGPFAIASVSVARGNGFGGGVIYYPTATNQGTFGGIAISPGLNGTWAGIAWLGPRLASQGFVVFGIETNNLNDSPTSRGTQLLAALDYLTQRSTVRTRVDAGRLAVMGHSMGGGGALDAALRRPSLQAAIGNAPHLPSGTLSNDRVPTMIYAMQNDTLVPPSRLTTLYNSIPATTERGYILVTGAGHNYIGQPSTTLARTMIPWFKIFIDDDTRYSQFLCPMSNQSGISQYRNSCPLS [ESM160] | 55.6 C | < 3 | 13.5 ± 2.1 | 43.5 ± 3.5 | 66.5 ± 0.71 | < 3 | < 3 | 7.5 ± 0.71 | 14 ± 1.4 | 400 µg | < 3 | < 3 | < 3 | < 3 | < 3 | < 3 | < 3 | < 3 |  |  |  |  |
| QTNPFQRGPAPTEATLEATRGPMATSQFTVSRPSGYRAGTVYYPTNAGGTVGGIVVVPGYTAYQSDINWWGPRLASWGFIVMTIDTNSTLDQPASRSRQQLAALDQLATLSRTSSSPIYNKLDTNRMGVMGWSMGGGGSLISTENRPSLKASIPFAPWNSTENFSSVTVPTLIIACQDDSIAPVYSHASPFYNSMTRNPKQFLEVRGEGHYCANSSNSDKDFLGKKGVAWMKRFMDNDTRFTTFACTNQESSLDVSDFRTARCS [DP032] | 44.5 C |  | < 3 | < 3 | < 3 |  |  |  |  | 38 µg |  |  |  |  |  |  |  |  | < 3 |  |  |  |
| ADNPYQRGPDPTRASVAAVNGPFVNTSVSVPTGYGFNGGRIYYPTDTSQGTFGAIAISPGYTALFSAELAWMGPWLASHGFVVIGIETNSRNDFDTARGTQLLAALDYLTQQSPVRDRVDPNRLAVSGHSMGGGGALSAAIRRSSLKAAVGITPYSPSQNLANDRVPTMVISGQADTVVTPSYALGLYNSLPASTESVYLEVAGGDHGFMVGRSNPVLIRTMLPFLKMFVDNDSRYSQFLCPLLDSSGVVTYRSTCPLLPTNPTTPPPTGTPTPTPTSTPTPTPTPTTPPPSGSANE [ESM091] | 62.5 C | 13.5 ± 0.71 | 28 ± 1.4 | 10 | < 3 | < 3 | < 3 | < 3 | < 3 | 336 µg | < 3 | < 3 | < 3 | < 3 | < 3 | < 3 | < 3 | < 3 |  |  |  |  |
| ATGPSSPCSNCTRGPDPTVASLKSATGPYTTAKFSVSGYLKGFGDSTVYYPTNASGKMGAIAVIPGYVSYEDSIKWWGPRLASHGFVVMTMNTSTIYDQPDSRATQLSKALDYMIAQSGSSSSPIYNKVDSTRLGVIGWSMGGGGTLKLSTQRSINAIIPQAPYYAGSNSFNTIKTPALILACGADAVAPVGVHASPFYNRIPGTTPKAYLEIYGGSHFCANSGYPNEDLLGMYGIAWMKRFIDFDSRYSKFLCGPNHTADLNISEYRQNCNY [DP078] | 59.5 C |  | 9 | 47 | 60 |  |  |  |  | 29 µg |  |  |  |  |  |  |  |  | 66 |  |  |  |
| ALNPYQRGPDPTDALLEAPRGPFATASTTVSRLSVSGFGGGVIYYPTDTSQGTFGGIAISPGYTASWSSLDWLGPRIASHGFVVIGIDTLSRYDQPASRGRQLLAALDYLTQRSSVRGRVDASRLAVAGHSMGGGGSLEAADSRPSLQAAVPLAPWHTTKNWSGVRVPTMIIGGESDSVAPVSTHSELFYASIPASSEKAYLELNGASHFFPNTTNTTMAKSMVSWLKRFVDDDVRYDPFLCPGPDGSAVEEYRQTCPLS [TEP140] | 51.4 C | < 3 | < 3 | < 3 | 4 |  |  |  |  | 36.5 µg |  |  |  |  |  |  |  |  |  |  |  |  |
| RPASAQDNPYERGPAPTVSSVAAQRGTFATAELTVPPGNGFNGGKIYYPTDTSLGTWGAVAAVPGYTAKWAAEGAWMGPWLASFGFVVIGIDTNSPNDYDTARGTQLLAALDYLTQKSAVRDRVDPNRLGVIGHSMGGGGAISAAVRRPSLKAALPLAPFSPSQNLSTLRVPTVIMGARDDGTVTPSYLDGLYGGMPAGTQSAFIELSSGGHGFPTWGNSNVTRRMIPWLKIFLDNDTRYTQFLCPSLADTSGVSRSKLKCPYVPPGGTTPPPPSGGPIVGAASGRCLEVPNSSQTNGTQVQLWDCLDRAGQKWTRTAAGELRVYGTKCLDAEASGTSPGTRVVIWDCHGGQNQQWNVNSNGTITSARSGLCLDAYNAGTGNGTQGVLWNCNGGANQRWALG [TEP024] | 61 C | < 3 | 4.5 ± 0.71 | 11.5 ± 2.1 | 14.5 ± 0.71 | < 3 | < 3 | < 3 | < 3 | 368 µg | < 3 | < 3 | < 3 | < 3 | < 3 | < 3 | < 3 | < 3 |  |  |  |  |
| ADNPYQRGPDPTPALVASVNGPFATASVSVPAGYGFGGGMIYYPTDTSQGTFGGIAISPGYTALFSAELAWMGPWLASHGFVVIGIETNNRNDFDEARGTQLLAALDYLTQQSPVRNRVDPNRLAVAGHSMGGGGALNAAIRRPSLKAAVGLAPFSPSSNLANDRVPTMVFSGQQDTVVTPSYVTGLYNSLPSTTQSAYLEIAGGDHGFPVGRPNQVMIRTMLPFVKIFVDYDTRYSPFLCPLSDTSGVVTYRSTCPLTPPGLPTTPPTTPPTTVPTSPPTGGPTTPPTTPSQPGGACTATYRTVNSWPGGFQGEVTVTAGNSAINGWTVRWTLDSGQAITQVWNGEVSTSGSTVSVRNAPYNGSLPPSGSTTFGFLSSGSPSSPSLTCTSP [DP059] | 74.2 C |  | 5.5 ± 0.71 | 21.5 ± 3.5 | 35 ± 2.8 |  | 32.5 ± 2.1 | 47 ± 8.5 | 19.5 ± 3.5 | 255 µg |  | < 3 | < 3 | < 3 |  | 2 ± 2.8 | < 3 | < 3 | 32.5 ± 3.5 | < 3 | < 3 | 34 ± 1.4 |
| ADNPYERGPAPTAASIAADRGPFATAQVTVPRGNGFGGGVIYYPTDTSQGTFGAIAIAPGFGTAWSYYAWQGPRLASFGFVVIGIETNTLNDYADARATQLLAALDYLVNSSPVRDRVDRNRLAVGGHSMGGGGAILAANQRPSLLTAVGQAPYVPDGSLATIKSPTIIFAGQADGTVTPQYAQNAYNTIPSSVERAYVEIANEGHGFPAGGGGGNSGAFARTMMIWMKLFIDKDTRYAPFLCPSLSNANGISKYMASCPLDPPGGGPTASPTASPTVSPTVSPSGTPPATSAIRGVGSGRCLDVNGASQANGAQAQIWDCNGQNNQKWTTTSAGELRVYGNKCLDVNGGGTADGTSVIIWDCNGQNNQKWRLNTDGTITAVGANKCLDVSGAGTANGTKVQIWTCNGQNNQKWTRT [ESM038] | 68.8 C | 4 | 10 | 16 | 19 | < 3 | < 3 | 4 | 6 | 190 µg |  |  |  |  |  |  |  |  |  |  |  |  |
| ASYQRGPDPTVQSVAANRGTFATAELTVPRGFGFNGGKIYYPTDTSQGTWGAIAAVPGYTASWAAEGAWMGPWLASFGFVVIGIDTNSPTDYDTARGTQLLAALDYLTGQSAVRDRVDPNRLAVLGHSMGGGGAISAAMRRPSLKAAVPLAPASFSQNLSNVRVPTLIMGARDDGTITPSSIDGLWSSKPATTQGARVELASGGHGFPTWGNSQVTRREIPWLKIFLDNDNRYAQFLCPSLADSTGVSRYISQCPYGSTGQPSSPPVSSPPAAGGPVRAVGAGKCLDVPNASQTNDTQLAIWDCNGGSNQQWTYTSGKQLRVYGGKCLDASGHGMSNGTRVIIWDCGGGANQQWNVNANGTITGVESGLCLDVTGAATANGALVDLWACNNGGNQQWRLG [ESM097] | 58.3 C | < 3 | < 3 | < 3 | 4 |  |  |  |  | 81.7 µg |  |  |  |  |  |  |  |  |  |  |  |  |
| ANPYERGPNPTQALLEARSGPFSVSSERAWRLGSDGFGGGTIYYPRENNTYGAVAISPGYTGTQASVAWLGERIASHGFVVITIDTNTTLDQPDSRADQLEAALDHMVDGASSTVRSRIDRNRLAVMGHSMGGGGTLRLASQRPDLKAAIPLTPWHLNKSWSNVQVPTLIIGADLDTIAPVLTHAEPFYNSIPTSTRKAYLELDGATHFAPNITNSTIGMYSVAWLKRFVDEDTRYTQFLCPGPRTGLFSDVEEYRSTCPF [TEP014] | 54.1 C | < 3 | < 3 | 1.5 ± 2.1 | 4.5 ± 0.71 | < 3 | < 3 | < 3 | < 3 | 267 µg | < 3 | < 3 | < 3 | < 3 | < 3 | < 3 | < 3 | < 3 |  |  |  |  |
| ADNPFQRGPNPTVESVAATRGTFATAQTSVPAGNGFGGGVVYYPTDTSQGTFGGVAIVPGYSALFADEEAWMGPWLASFGFVVIGIETNSRTDSADARGTQLLAALDYLTQRSPVRDRVDPNRLSVVGHSAGGAGVLSALLRRPSLKAGVGLAPGSPVGNYDLYDDRVPTMFISGQRDTTVTRSYLNGLYGTLPATTPSAWVEITGVDHLFATRANTTEMRVLIPWLKIWVDDDTRYTRFLCPLADSTGISMYRDTCPYVPPGGSSPSPSASPSPSPSPSPSPSPSPSPSPSPSPSPSPSPSASPSASPSPPPPGACAAEYHTVNSWPGGYQASVTVTAGASAVQGWTVRWTLGSGQSITQLWNGTLSTSGSAVTVKNASYNGTIPASGSATFGFLATGTPSAPPLTCTSP [ESM067] | 57.1 C | < 3 | < 3 | < 3 | < 3 | < 3 | < 3 | < 3 | < 3 | 447 µg | < 3 | < 3 | < 3 | < 3 | < 3 | < 3 | < 3 | < 3 |  |  |  |  |
